Data taken from US20180049457A1, “ENZYMATIC SYNTHESIS OF SOLUBLE GLUCAN FIBER” (E I DU PONT DE NEMOURS AND COMPANY, priority 2014, published 2018).

Assay: GTF activity of strains (PAHBAH assay)
Format: biochemical
Conditions: enzyme expressed in B. subtilis host
Method: GTF activity of the strains was analyzed by PAHBAH assay in three separate experiments. Due to minor variations between the expeirments, Table 2 lists the activity of the truncated enzymes in the B. subtilis host along with the experiment in which the activity was measured. Most of the T1, T2, and T6 truncations decreased the activity of the enzymes, whereas the T4 and T5 C-terminal truncations retained similar activity relative to the respective N terminal-only truncations (NT). […] To identify specific amino acid residues within the catalytic domain that may be involved in producing the soluble α-glucan fiber, we analyzed the crystal structures (PDB Identifiers: 3AIB, 3AIC, and 3HZ3) of the catalytic domains of three glucosyltransferases to identify residues within 8 Angstroms of the bound ligand. 57 residues met that criterion. A motif was generated based on the corresponding 57 amino acids in GTF0459 and each of the identified homologs. The motif was then used to generate a consensus sequence to capture the variability in the catalytic domains of GTF0459 and the identified homologs. The consensus sequence is provided as SEQ ID NO: 153.

B1: GTF3808T5: T5 C-terminal truncation of GTF3808, SEQ ID NO: 124, strain SG1330 (protein)
chain: INGKQYYVNSDGSVRKNFVFEQDGKSYYFDAETGALATKSQDEFSTEPIKATVDFSSGNQLYKNDDKSLDQLDTFITADAWYRPKSILKDGKTWTASTEADKRPLLMVWWPDKSTQVNYLNYMQNQGLGAGSFSTNSSQESLDQAAKMVQTKIEERIAREGNTNWLRTSIDQFIKTQPGWNSSTENSSYDHLQGGQLLFNNSKGDTGNRTSHANSDYRLLNRTPTNQTGTRKYFKDNSIGGLEFLLANDIDNSNPAVQAEQLNWLHFMMNIGSIMANDPTANFDGLRVDALDNVDADLLQIASDYFKAAYGVDKSEANAIKHLSYLEAWSANDPYYNKDTKGAQLPIDNALRNALTNLLMRDKNTRMQLGDMTAFINSSLNPRGANDKNGERMANYIFTRAHDTEAQTIIQRIIRDRINPNLFGYNFTRDEIKKAFEIYNEDIDKAHKTYASYNLPSVYALMLTNKDSVTRVYYGDLYREDGHYMAKKTPYFDAIDTLLRARIKYVAGGQDMEVKKVGNDGLLTSVRYGKGANNRTDLGTSETRTQGMGVIMTNNYDFRLGSNETVTMNMGRAHRNQLYRPLLLTTKDGIATYLNDSDVPKNLLKRTDWNGNLTFNANDVFGVENVQVSGYLGVWVPYGAKANQDARTQPSNRANSDGQVYKSSAALDSQVMYEAFSNFQAFADDQPELYMNRVLAKNTDLLKAWGITSVGLPPQYVSSKDGTFLDSTIDNGYAFDDRYDMALSQNNKYGSLEDLLNVLRALHKDGIQAIADWVPDQIYNLPGKEVVNATRVNGYGNHQVGYQIIDQAYVANTRTDGTDYQGKYGGAFLDELKAKYPSIFNRVQISNGKQLPTNEKITKWSAKYFNGTNILGRGINYVLRDDKTNQYFNTSANSQLLPTPLRDTGAITSTQVFQRRGQDVYFLRDNQAVKNEFVQDGNGNWYYFGGDGKMTKGAQNINNKDYYFFDNGIQLRNALRRASNGYTYYYGLDGAMVKNAFVDFDDKHKQ
modifications: T5 C-terminal truncation of GTF3808
Experiment Number 3
  GTF activity of strains: Acitivity: 36.2 U/mL

B2: GTF3808NT: N terminal-only truncated GTF3808 from Streptococcus sp. SR4, SEQ ID NO: 108, strain SG1313 (protein)
chain: INGKQYYVNSDGSVRKNFVFEQDGKSYYFDAETGALATKSQDEFSTEPIKATVDFSSGNQLYKNDDKSLDQLDTFITADAWYRPKSILKDGKTWTASTEADKRPLLMVWWPDKSTQVNYLNYMQNQGLGAGSFSTNSSQESLDQAAKMVQTKIEERIAREGNTNWLRTSIDQFIKTQPGWNSSTENSSYDHLQGGQLLFNNSKGDTGNRTSHANSDYRLLNRTPTNQTGTRKYFKDNSIGGLEFLLANDIDNSNPAVQAEQLNWLHFMMNIGSIMANDPTANFDGLRVDALDNVDADLLQIASDYFKAAYGVDKSEANAIKHLSYLEAWSANDPYYNKDTKGAQLPIDNALRNALTNLLMRDKNTRMQLGDMTAFINSSLNPRGANDKNGERMANYIFTRAHDTEAQTIIQRIIRDRINPNLFGYNFTRDEIKKAFEIYNEDIDKAHKTYASYNLPSVYALMLTNKDSVTRVYYGDLYREDGHYMAKKTPYFDAIDTLLRARIKYVAGGQDMEVKKVGNDGLLTSVRYGKGANNRTDLGTSETRTQGMGVIMTNNYDFRLGSNETVTMNMGRAHRNQLYRPLLLTTKDGIATYLNDSDVPKNLLKRTDWNGNLTFNANDVFGVENVQVSGYLGVWVPYGAKANQDARTQPSNRANSDGQVYKSSAALDSQVMYEAFSNFQAFADDQPELYMNRVLAKNTDLLKAWGITSVGLPPQYVSSKDGTFLDSTIDNGYAFDDRYDMALSQNNKYGSLEDLLNVLRALHKDGIQAIADWVPDQIYNLPGKEVVNATRVNGYGNHQVGYQIIDQAYVANTRTDGTDYQGKYGGAFLDELKAKYPSIFNRVQISNGKQLPTNEKITKWSAKYFNGTNILGRGINYVLRDDKTNQYFNTSANSQLLPTPLRDTGAITSTQVFQRRGQDVYFLRDNQAVKNEFVQDGNGNWYYFGGDGKMTKGAQNINNKDYYFFDNGIQLRNALRRASNGYTYYYGLDGAMVKNAFVDFDDKHKQVRAFTTQGTMVVGNLHWSGHHFYFDRETGIQAKDRVVRTDDGKLHYYVAETGDMGRNVFATDSSTGKRYYFDADGNTVTGSRVIDGKTYYFNQDGSVGTAYSNRADSIIFENGKARYITPAGEIGRSIFVYNPATKAWNYFDKEGNRVTGRQYIDGHLYYFKEDGSQAKGEIIEENGIKYYYEPESGILASGRYLQVGDDQWMYFKQDGSLAIGQVRADHGYLKYFDKNGIQVKGKTVVEDGKTYYYDAHSGALVTSSFAEIAPNQWSYFNTDGQALKGKWTINGKEYYFDENGIQYKGKAIKVGSRYKYYDENDGQPVTNRFAQIEPNVWAYFGADGYAVTGEQVINGQHLYFDQSGRQVKGAYVTVNGQRRYYDANTGEYVPGR
modifications: Streptococcus sp. SR4
Experiment Number 3
  GTF activity of strains: Acitivity: 34.9 U/mL

B3: GTF0459NTnativeT5: T5 C-terminal truncation of GTF0459, SEQ ID NO: 126, strain SG1297 (protein)
chain: INGKQYYVNSDGSVRKNFVFEQDGKSYYFDAETGALATKSQDEFSTEPIKAAVDFSSGNQLYKNDNKSLDQLDTFITADAWYRPKSILKDGKTWTASTEADKRPLLMVWWPDKSTQVNYLNYMQNQGLGAGSFSTNSSQESLNLAAKAVQTKIEERIAREGNTNWLRTSIDQFIKTQPGWNSSTENSSYDHLQGGQLLFNNSKGDTGNRTSYANSDYRLLNRTPTNQSGTRKYFKDNSIGGLEFLLANDIDNSNPAVQAEQLNWLHFMMNIGSIMANDPTANFDGLRVDALDNVDADLLQIASDYFKAVYGVDKSEANAIKHLSYLEAWSANDPYYNKDTKGAQLPIDNALRNALTNLLMRDKNTRMQLGDMTAFMNSSLNPRGANDKNGERMANYIFTRAHDTEAQTIIQRIIRDRINPNLFGYNFTRDEIKKAFEIYNADINTAHKTYASYNLPSVYALMLTNKDSVTRVYYGDLYREDGHYMAKKTPYFDAIDTLLRARIKYVAGGQDMEVKKVGNDGLLTSVRYGKGANNSTDWGTTETRTQGMGVILTNNYDFRLGSNETVTMNMGRAHRNQLYRPLLLTTKDGLATYLNDSDVPSNLLKRTDWNGNLTFNANDVFGVENVQVSGYLGVWVPVGAKANQDARTQPSNRANSDGQVYKSSAALDSQVMYEAFSNFQAFADDQPELYMNRVLAKNTDLLKAWGVTSVGLPPQYVSSKDGTFLDSTIDNGYAFDDRYDMALSQNNKYGSLEDLLNVLRALHKDGIQAIADWVPDQIYNLPGKEVVNATRVNGYGYHQQGYQIVDQAYVANTRTDGTDYQGRYGGAFLDELKAKYPSIFNRVQISNGKQLPTNEKITKWSAKYFNGTNILGRGINYVLRDDKTNQYFNTSANGQLLPTPLRDTGAITSTQVFQRRGQDVYFLRDNQVIKNEFVQDGNGNWYYFGADGKMTKGAQNINSKDYYFFDNGVQLRNALRRASNGYTYYYGLDGAMIKNAFVDFDDKHQ
modifications: T5 C-terminal truncation of GTF0459
Experiment Number 2
  GTF activity of strains: Acitivity: 52 U/mL

B4: GTF0459NTnativeT6: T6 C-terminal truncation of GTF0459, SEQ ID NO: 134, strain SG1298 (protein)
chain: INGKQYYVNSDGSVRKNFVFEQDGKSYYFDAETGALATKSQDEFSTEPIKAAVDFSSGNQLYKNDNKSLDQLDTFITADAWYRPKSILKDGKTWTASTEADKRPLLMVWWPDKSTQVNYLNYMQNQGLGAGSFSTNSSQESLNLAAKAVQTKIEERIAREGNTNWLRTSIDQFIKTQPGWNSSTENSSYDHLQGGQLLFNNSKGDTGNRTSYANSDYRLLNRTPTNQSGTRKYFKDNSIGGLEFLLANDIDNSNPAVQAEQLNWLHFMMNIGSIMANDPTANFDGLRVDALDNVDADLLQIASDYFKAVYGVDKSEANAIKHLSYLEAWSANDPYYNKDTKGAQLPIDNALRNALTNLLMRDKNTRMQLGDMTAFMNSSLNPRGANDKNGERMANYIFTRAHDTEAQTIIQRIIRDRINPNLFGYNFTRDEIKKAFEIYNADINTAHKTYASYNLPSVYALMLTNKDSVTRVYYGDLYREDGHYMAKKTPYFDAIDTLLRARIKYVAGGQDMEVKKVGNDGLLTSVRYGKGANNSTDWGTTETRTQGMGVILTNNYDFRLGSNETVTMNMGRAHRNQLYRPLLLTTKDGLATYLNDSDVPSNLLKRTDWNGNLTFNANDVFGVENVQVSGYLGVWVPVGAKANQDARTQPSNRANSDGQVYKSSAALDSQVMYEAFSNFQAFADDQPELYMNRVLAKNTDLLKAWGVTSVGLPPQYVSSKDGTFLDSTIDNGYAFDDRYDMALSQNNKYGSLEDLLNVLRALHKDGIQAIADWVPDQIYNLPGKEVVNATRVNGYGYHQQGYQIVDQAYVANTRTDGTDYQGRYGGAFLDELKAKYPSIFNRVQISNGKQLPTNEKITKWSAKYFNGTNILGRGINYVLRDDKTNQYFNTSANGQLLPTPLRDTGAITSTQVFQRRGQDVYFLRDNQVIKNEFVQDGNGNWYYFGADGKMTKGAQNINSKDYYFFDNGVQLRNALRRASNGYTYYYGLDGAMIKNAFVDFDDKHQQVRAFTTQ
modifications: T6 C-terminal truncation of GTF0459
Experiment Number 1
  GTF activity of strains: Acitivity: 28.5 U/mL
